Test results: article PMC6783512, “Dimethylaminomicheliolide (DMAMCL) Suppresses the Proliferation of Glioblastoma Cells via Targeting Pyruvate Kinase 2 (PKM2) and Rewiring Aerobic Glycolysis” (Frontiers in Oncology, 2019)

Molecular target: the molecule itself
Assay: SEC + AUC; 2 mL of 3 mg/mL purified PKM2 on Superdex 200 pg 16/600, 1 mL/min, UV 280 nm; peaks identified by analytical ultracentrifuge (results: sucrose gradient ultracentrifugation); monomer and tetramer fractions isolated

B1: recombinant PKM2 C424S (enzyme)
chain: not shown
notes: Pyruvate kinase M2 (PKM2) with C424S; likely made in E. coli like the wild type; also called rPKM2 protein with C424 mutation; source: purified (plasmid pET28a-PKM2 C424S)
stoichiometry N: 4
